One block for each binder: values may come before it.
How the values were obtained:
Assay in all cases: SPOT array
[1] = biological target: T1, Hof1, Q05080; conditions: median of control spots 4086
T1 sequence (Q05080 590-669, looked up): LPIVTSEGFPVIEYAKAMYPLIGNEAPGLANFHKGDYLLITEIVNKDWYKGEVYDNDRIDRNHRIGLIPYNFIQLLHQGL

[2] = biological target: T2, Nbp2, Q12163; conditions: median of control spots 357
T2 sequence (Q12163 103-180, looked up): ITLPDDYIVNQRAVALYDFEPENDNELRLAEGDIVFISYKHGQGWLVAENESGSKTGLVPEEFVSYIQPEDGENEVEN

[3] = biological target: T3, Lsb4, P32793; conditions: median of control spots 397
T3 sequence (P32793 402-468, looked up): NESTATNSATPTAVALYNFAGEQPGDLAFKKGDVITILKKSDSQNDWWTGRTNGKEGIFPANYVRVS

[4] = biological target: T4, Hse1, P38753; conditions: median of control spots 1727
T4 sequence (P38753 208-285, looked up): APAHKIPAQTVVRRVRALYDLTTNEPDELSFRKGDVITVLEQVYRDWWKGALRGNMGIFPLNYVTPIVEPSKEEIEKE

[5] = biological target: Sho1, P40073; conditions: median of control spots 1148
Sequence of Sho1, P40073 (P40073 287-367): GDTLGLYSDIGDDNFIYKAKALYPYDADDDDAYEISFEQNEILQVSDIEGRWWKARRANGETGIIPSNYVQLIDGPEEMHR

[6] = biological target: Bem1-1, P29366; conditions: median of control spots 4282
Sequence of Bem1-1, P29366 (P29366 55-141): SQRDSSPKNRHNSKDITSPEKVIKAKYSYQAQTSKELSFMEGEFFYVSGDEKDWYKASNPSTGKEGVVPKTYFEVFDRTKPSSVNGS

[7] = biological target: T5, Boi1, P38041; conditions: median of control spots 1162
T5 sequence (P38041 1-86, looked up): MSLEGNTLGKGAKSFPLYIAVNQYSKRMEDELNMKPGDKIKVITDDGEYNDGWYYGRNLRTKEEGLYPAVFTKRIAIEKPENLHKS

[8] = biological target: T6, Bzz1-1, P38822; conditions: median of control spots 4446
T6 sequence (P38822 478-572, looked up): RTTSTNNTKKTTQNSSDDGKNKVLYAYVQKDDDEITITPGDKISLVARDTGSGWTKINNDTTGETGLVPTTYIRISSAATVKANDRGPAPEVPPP

[9] = biological target: T7, Bbc1, P47068; conditions: median of control spots 796
T7 sequence (P47068 1-78, looked up): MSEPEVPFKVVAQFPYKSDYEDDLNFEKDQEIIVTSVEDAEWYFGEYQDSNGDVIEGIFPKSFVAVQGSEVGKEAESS

[10] = biological target: T8, Cyk3, Q07533; conditions: median of control spots 1451
T8 sequence (Q07533 1-83, looked up): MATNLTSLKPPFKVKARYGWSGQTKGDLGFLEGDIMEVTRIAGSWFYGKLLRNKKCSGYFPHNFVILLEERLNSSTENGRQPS

[11] = biological target: T9, Lsb1, P53281; conditions: median of control spots 388
T9 sequence (P53281 45-122, looked up): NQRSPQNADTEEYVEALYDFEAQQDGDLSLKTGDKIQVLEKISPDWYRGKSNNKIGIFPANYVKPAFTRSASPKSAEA

[12] = biological target: Myo3, P36006; conditions: median of control spots 468
[13] = biological target: T10, Fus1, P11710; conditions: median of control spots 1200
T10 sequence (P11710 432-512, looked up): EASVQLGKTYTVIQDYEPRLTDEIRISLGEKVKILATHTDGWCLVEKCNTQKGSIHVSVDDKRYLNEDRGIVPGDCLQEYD

[14] = biological target: T11, Pex13, P80667; conditions: median of control spots 1341
T11 sequence (P80667 295-386, looked up): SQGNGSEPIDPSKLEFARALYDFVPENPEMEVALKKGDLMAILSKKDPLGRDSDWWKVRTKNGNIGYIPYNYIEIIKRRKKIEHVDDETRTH

[15] = biological target: T12, Sla1-2, P32790; conditions: median of control spots 712
T12 sequence (P32790 60-140, looked up): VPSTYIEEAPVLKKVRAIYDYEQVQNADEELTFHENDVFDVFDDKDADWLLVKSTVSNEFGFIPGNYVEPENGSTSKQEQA

[16] = biological target: T13, Sla1-3, P32790; conditions: median of control spots 5475
T13 sequence (P32790 344-424, looked up): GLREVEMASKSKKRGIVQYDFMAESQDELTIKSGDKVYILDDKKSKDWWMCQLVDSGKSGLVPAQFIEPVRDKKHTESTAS

[17] = biological target: T14, Bzz1-2, P38822; conditions: median of control spots 4538
T14 sequence (P38822 568-633, looked up): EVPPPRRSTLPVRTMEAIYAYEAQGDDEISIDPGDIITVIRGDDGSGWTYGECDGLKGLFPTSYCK

[18] = biological target: T15, Cdc25, P04821; conditions: median of control spots 969
T15 sequence (P04821 50-136, looked up): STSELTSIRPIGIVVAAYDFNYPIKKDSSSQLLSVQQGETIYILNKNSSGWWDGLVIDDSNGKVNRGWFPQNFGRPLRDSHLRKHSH

[19] = biological target: Bem1-2, P29366; conditions: median of control spots 4347
Sequence of Bem1-2, P29366 (P29366 139-227): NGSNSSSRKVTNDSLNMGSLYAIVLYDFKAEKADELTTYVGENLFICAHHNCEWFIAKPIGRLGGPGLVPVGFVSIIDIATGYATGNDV

[20] = biological target: T16, Myo5, Q04439; conditions: median of control spots 471
T16 sequence (Q04439 1072-1160, looked up): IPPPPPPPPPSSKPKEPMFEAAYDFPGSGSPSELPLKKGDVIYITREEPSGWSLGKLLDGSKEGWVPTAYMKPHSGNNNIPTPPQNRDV

[21] = biological target: T17, Pin3, Q06449; conditions: median of control spots 2171
T17 sequence (Q06449 53-122, looked up): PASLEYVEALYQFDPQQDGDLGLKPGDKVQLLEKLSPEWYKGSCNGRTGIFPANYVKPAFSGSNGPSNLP

[22] = biological target: GST; conditions: median of control spots 978
[23] = biological target: Rvs167, P39743; conditions: median of control spots 2707
Sequence of Rvs167, P39743 (P39743 419-482): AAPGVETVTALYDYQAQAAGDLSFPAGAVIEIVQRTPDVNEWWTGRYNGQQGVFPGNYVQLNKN

[24] = biological target: T18, Bud14, P27637; conditions: median of control spots 956
T18 sequence (P27637 247-328, looked up): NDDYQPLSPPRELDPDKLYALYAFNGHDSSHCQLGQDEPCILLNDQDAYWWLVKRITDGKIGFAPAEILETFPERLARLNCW

[25] = biological target: T19, Lsb3, P43603; conditions: median of control spots 406
T19 sequence (P43603 385-451, looked up): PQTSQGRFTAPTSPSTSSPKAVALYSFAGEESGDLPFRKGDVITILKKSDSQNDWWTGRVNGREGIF

[26] = biological target: T20, Abp1, P15891; conditions: median of control spots 935
T20 sequence (P15891 535-592, looked up): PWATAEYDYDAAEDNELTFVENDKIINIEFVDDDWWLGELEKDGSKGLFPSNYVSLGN

[27] = biological target: T21, Boi2, P39969; conditions: median of control spots 1161
T21 sequence (P39969 32-116, looked up): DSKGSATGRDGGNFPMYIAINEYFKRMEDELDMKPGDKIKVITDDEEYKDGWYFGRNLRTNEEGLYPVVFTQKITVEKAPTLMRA

B1: unnamed (peptide)
chain: NTMKKRPAPPSLPSL
- SPOT intensity [1]: 489
- SPOT intensity [2]: 120
- SPOT intensity [3]: 63
- SPOT intensity [4]: 53
- SPOT intensity [5]: 95
- SPOT intensity [6]: 0
- SPOT intensity [7]: 7
- SPOT intensity [8]: 60
- SPOT intensity [9]: 15
- SPOT intensity [10]: 1
- SPOT intensity [11]: 52
- SPOT intensity [12]: 99
- SPOT intensity [13]: 0
- SPOT intensity [14]: 80
- SPOT intensity [15]: 1
- SPOT intensity [16]: 11
- SPOT intensity [17]: 1440
- SPOT intensity [18]: 58
- SPOT intensity [19]: 56
- SPOT intensity [20]: 115
- SPOT intensity [21]: 57
- SPOT intensity [22]: 0
- SPOT intensity [23]: 9
- SPOT intensity [24]: 21
- SPOT intensity [25]: 12
- SPOT intensity [26]: 205
- SPOT intensity [27]: 2

B2: unnamed (peptide)
chain: YLTRPLPSTPNEDSR
- SPOT intensity [1]: 0
- SPOT intensity [2]: 0
- SPOT intensity [3]: 598
- SPOT intensity [4]: 6
- SPOT intensity [5]: 1320
- SPOT intensity [6]: 0
- SPOT intensity [7]: 0
- SPOT intensity [8]: 0
- SPOT intensity [9]: 0
- SPOT intensity [10]: 0
- SPOT intensity [11]: 8
- SPOT intensity [12]: 0
- SPOT intensity [13]: 0
- SPOT intensity [14]: 297
- SPOT intensity [15]: 0
- SPOT intensity [16]: 1
- SPOT intensity [17]: 0
- SPOT intensity [18]: 0
- SPOT intensity [19]: 12
- SPOT intensity [20]: 0
- SPOT intensity [21]: 0
- SPOT intensity [22]: 0
- SPOT intensity [23]: 15
- SPOT intensity [24]: 1
- SPOT intensity [25]: 139
- SPOT intensity [26]: 0
- SPOT intensity [27]: 1

Next, values leading:

- SPOT intensity [1]: 0
- SPOT intensity [2]: 283
- SPOT intensity [3]: 29
- SPOT intensity [4]: 3
- SPOT intensity [5]: 99
- SPOT intensity [6]: 1
- SPOT intensity [7]: 1
- SPOT intensity [8]: 27
- SPOT intensity [9]: 105
- SPOT intensity [10]: 1
- SPOT intensity [11]: 1290
- SPOT intensity [12]: 20
- SPOT intensity [13]: 14
- SPOT intensity [14]: 6
- SPOT intensity [15]: 0
- SPOT intensity [16]: 24
- SPOT intensity [17]: 946
- SPOT intensity [18]: 15
- SPOT intensity [19]: 0
- SPOT intensity [20]: 0
- SPOT intensity [21]: 7
- SPOT intensity [22]: 1
- SPOT intensity [23]: 9
- SPOT intensity [24]: 6
- SPOT intensity [25]: 8
- SPOT intensity [26]: 274
- SPOT intensity [27]: 0
B3: unnamed (peptide)
chain: RKRAPTPPAPSRSEK

- SPOT intensity [1]: 1560
- SPOT intensity [2]: 0
- SPOT intensity [3]: 278
- SPOT intensity [4]: 0
- SPOT intensity [5]: 30
- SPOT intensity [6]: 0
- SPOT intensity [7]: 0
- SPOT intensity [8]: 0
- SPOT intensity [9]: 0
- SPOT intensity [10]: 0
- SPOT intensity [11]: 174
- SPOT intensity [12]: 7
- SPOT intensity [13]: 0
- SPOT intensity [14]: 235
- SPOT intensity [15]: 0
- SPOT intensity [16]: 0
- SPOT intensity [17]: 2
- SPOT intensity [18]: 0
- SPOT intensity [19]: 0
- SPOT intensity [20]: 27
- SPOT intensity [21]: 4
- SPOT intensity [22]: 0
- SPOT intensity [23]: 1460
- SPOT intensity [24]: 0
- SPOT intensity [25]: 131
- SPOT intensity [26]: 6
- SPOT intensity [27]: 1
B4: unnamed (peptide)
chain: MAMRPIPPLPTESEY
